# Test results published in PMC9651861 (Science Advances, 2022).
# B1: DesAb-RBD-C1 (VHH)
# VHH: EVQLEESGGGLVQPGGSLRLSCAASGFNIKDTYIGWVRQAPGKGEEWVASIYPTSGYTRYADSVKGRFTISADTSKNTAYLQMNSLRAEDTAVYYCAAGSGSSATEVYEEFDYWGQGTLVTVSS
# B2: DesAb-RBD-C2 (VHH)
# VHH: EVQLEESGGGLVQPGGSLRLSCAASGFNIKDTYIGWVRQAPGKGEEWVASIYPTSGYTRYADSVKGRFTISADTSKNTAYLQMNSLRAEDTAVYYCAAGSVVADLSVEEFDYWGQGTLVTVSS
# Molecular target: T1, human serum albumin (Homo sapiens, UniProt P02768)
# T1 construct: also called HSA
# Assay: BLI
# Details: both partners purified
binder,measurement,value
B1,binding result,no binding
B2,binding result,no binding
